Experimental data from patent US20250066509A1 (SHANGHAI JMT BIO TECHNOLOGY, published 2025).
Changes are numbered by the printed parent chain. Where two headings read alike, the source gives them in different places.

T1: human αKlotho extracellular segment protein (human, UniProt Q9UEF7 34-981)
T1 construct: extracellular domain
T1 sequence (looked up): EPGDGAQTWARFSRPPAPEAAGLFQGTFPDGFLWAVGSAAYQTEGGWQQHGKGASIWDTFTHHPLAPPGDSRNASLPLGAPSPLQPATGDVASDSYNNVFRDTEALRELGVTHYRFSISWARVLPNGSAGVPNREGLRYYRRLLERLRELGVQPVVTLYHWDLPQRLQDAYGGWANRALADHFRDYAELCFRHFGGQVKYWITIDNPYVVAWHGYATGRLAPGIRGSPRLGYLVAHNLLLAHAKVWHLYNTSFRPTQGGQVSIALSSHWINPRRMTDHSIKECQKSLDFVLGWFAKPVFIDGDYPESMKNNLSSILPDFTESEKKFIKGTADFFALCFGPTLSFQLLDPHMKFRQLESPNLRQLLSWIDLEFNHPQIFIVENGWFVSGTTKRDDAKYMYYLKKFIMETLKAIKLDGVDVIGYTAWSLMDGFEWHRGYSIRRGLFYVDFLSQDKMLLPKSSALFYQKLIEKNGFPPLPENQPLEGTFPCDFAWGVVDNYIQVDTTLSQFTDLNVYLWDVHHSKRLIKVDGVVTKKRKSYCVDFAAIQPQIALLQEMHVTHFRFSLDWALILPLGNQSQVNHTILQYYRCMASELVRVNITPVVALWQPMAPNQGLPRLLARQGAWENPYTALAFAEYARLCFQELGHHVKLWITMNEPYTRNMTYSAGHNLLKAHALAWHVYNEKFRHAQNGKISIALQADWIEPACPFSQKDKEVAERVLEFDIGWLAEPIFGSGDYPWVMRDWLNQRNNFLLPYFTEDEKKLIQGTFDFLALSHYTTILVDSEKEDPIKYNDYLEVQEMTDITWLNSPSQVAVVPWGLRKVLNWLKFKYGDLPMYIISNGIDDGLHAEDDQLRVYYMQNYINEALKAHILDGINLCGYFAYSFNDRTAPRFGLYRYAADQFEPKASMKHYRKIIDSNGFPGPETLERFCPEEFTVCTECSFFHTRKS

T2: human βKlotho extracellular segment protein (human, UniProt Q86Z14 53-996)
T2 construct: Captured by nickel plate or anti-His antibody, so His-tagged; also called human βKlotho extracellular protein
T2 sequence: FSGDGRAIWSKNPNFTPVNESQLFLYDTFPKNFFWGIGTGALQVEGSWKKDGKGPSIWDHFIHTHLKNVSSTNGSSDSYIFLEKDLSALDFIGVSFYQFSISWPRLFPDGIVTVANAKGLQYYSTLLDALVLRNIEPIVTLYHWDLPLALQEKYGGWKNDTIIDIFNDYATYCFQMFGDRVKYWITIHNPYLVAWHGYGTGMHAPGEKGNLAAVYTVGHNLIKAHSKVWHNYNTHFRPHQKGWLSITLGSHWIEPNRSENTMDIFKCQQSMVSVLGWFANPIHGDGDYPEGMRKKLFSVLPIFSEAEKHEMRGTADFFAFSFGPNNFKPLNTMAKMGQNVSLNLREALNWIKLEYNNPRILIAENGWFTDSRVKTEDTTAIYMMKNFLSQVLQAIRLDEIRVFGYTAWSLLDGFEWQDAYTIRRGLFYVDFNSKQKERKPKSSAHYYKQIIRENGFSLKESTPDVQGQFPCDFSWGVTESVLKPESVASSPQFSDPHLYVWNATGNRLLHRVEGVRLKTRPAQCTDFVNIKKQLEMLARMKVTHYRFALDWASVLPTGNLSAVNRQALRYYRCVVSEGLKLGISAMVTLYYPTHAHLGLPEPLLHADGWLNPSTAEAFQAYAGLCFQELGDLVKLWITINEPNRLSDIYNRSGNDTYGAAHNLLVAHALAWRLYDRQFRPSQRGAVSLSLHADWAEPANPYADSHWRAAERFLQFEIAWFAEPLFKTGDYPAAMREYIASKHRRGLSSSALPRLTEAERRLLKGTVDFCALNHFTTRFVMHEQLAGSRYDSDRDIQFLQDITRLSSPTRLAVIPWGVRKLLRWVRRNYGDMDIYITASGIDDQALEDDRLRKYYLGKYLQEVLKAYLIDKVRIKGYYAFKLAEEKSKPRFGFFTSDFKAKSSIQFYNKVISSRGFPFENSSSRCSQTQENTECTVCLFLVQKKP

B1: CB-8 (antibody, V domains shown)
VH: EVQLVQSGAEVKKPGASVKVSCKASGYTFTSYGISWVRQAPGQGLEWMGWISAYNGNTNYAQKLQGRVTMTTDTSTSTAYMELRSLRSDDTAVYYCATLYGSGSLYYWGQGTLVTVSS
VL: DIVMTQSPSSLSAPVGDRVTITCQASQDIRNYINWFQQKPGKAPKLLIYAASSLQSGVPSRFSGSGSGTDFTLTISSLQPEDFATYYCQQSYSTPQWTFGQGTKVEIK
B2: CB-8-42 (antibody, human IgG1, kappa, V domains shown)
VH: B1 VH with N55S, Y100L, G101P
VL: DIVMTQSPSSLSAPVGDRVTITCQASQDIRNYINWFQQKPGKAPKLLIYAASYLQSGVPSRFSGSGSGTDFTLTISSLQPEDFATYYCQQSYSTPQWTFGQGTKVEIKR
B3: CB-8-41 (antibody, human IgG1, V domains shown)
VH: B1 VH with T28L, N55T
VL: B1 VL with S53H
B4: CB-8-13 (antibody, human IgG1, V domains shown)
VH: B1 VH with T28R, N57R
VL: B1 VL with S53R
B5: CB-8-37 (antibody, human IgG1, V domains shown)
VH: B1 VH with T28A, N55S
VL: B1 VL with S53F
B6: CB-8-23 (antibody, human IgG1, V domains shown)
VH: B1 VH with Y32G, N57R
VL: B1 VL with S53F
B7: CB-8-24 (antibody, V domains shown)
VH: B1 VH with Y100L, G101P
VL: B1 VL
B8: CB-8-26 (antibody, human IgG1, V domains shown)
VH: B1 VH with T30K, N57R
VL: B1 VL with S53G
B9: CB-8-14 (antibody, human IgG1, V domains shown)
VH: B1 VH with T30R, N55T
VL: B1 VL with L54R
B10: CB-8-40 (antibody, human IgG1, V domains shown)
VH: B1 VH with N55S
VL: B1 VL with S53Y

Experiments:
[1] = target: T3, cynomolgus monkey FGFR1c/βKlotho receptor (cynomolgus monkey, UniProt A0A2K5WB58 1-1044); experiment: cell-based or functional assay
[2] = target: T1, human αKlotho extracellular segment …; experiment: ELISA; extracellular segment protein on nickel-coated plate, antibody titrated, anti-human IgG Fab-HRP
Method: In this Example, the binding of some antibodies in Example 1 to human βKlotho, human αKlotho, and mouse βKlotho was detected using an ELISA assay as described below. A solution of human βKlotho (R&D systems), human αKlotho (R&D systems), or mouse βKlotho (R&D systems) extracellular segment protein at a specified concentration was added to a nickel-coated 96-well plate (Pierce) and the plate was incubated overnight at room temperature. The next day, the plate was blocked with PBS/1% BSA, and then antibodies at various concentrations were added to the wells. After incubating the plate for 1.5 hours at room temperature, a HRP-labeled anti-human IgG Fab secondary antibody was added to the wells and the plate was incubated for 30 minutes at room temperature. After the substrate was added and reacted at room temperature for 15 minutes, the reaction-stopping solution was added. OD₄₅₀ values were read. Exemplary data of antibodies' binding to human βKlotho, human αKlotho, and mouse βKlotho in the ELISA assay are as follows.

[3] = target: T3, cynomolgus monkey FGFR1c/βKlotho …; experiment: cell-based or functional assay; remark: listed apart in the source
[4] = target: T3, cynomolgus monkey FGFR1c/βKlotho …; experiment: cell-based or functional assay; remark: listed apart in the source
[5] = target: human FGFR4/βKlotho receptor (human, UniProt P22455 22-802); experiment: cell-based or functional assay
[6] = target: T2, human βKlotho extracellular segment …; experiment: Gator BLI; antibody captured on Protein A probe, human βKlotho ECD 400 nM-50 nM in solution
Method: The antibodies described above were tested for affinity using Gator (Gator bio). Briefly, an antibody was first captured using a probe coated with Protein A (Gator bio). After the baseline was monitored for 60 seconds, the antibody-to-the antigen binding was determined with the human βKlotho extracellular segment protein described above at varying concentrations (400 nM-50 nM). Then, the dissociation was detected in a K buffer (Gator bio). Meanwhile, the function of an antibody to activate the human or cynomolgus monkey FGFR1c/βKlotho receptor was detected using the reporter-based assay described in Example 2.

T3 sequence (A0A2K5WB58 entry or part of it): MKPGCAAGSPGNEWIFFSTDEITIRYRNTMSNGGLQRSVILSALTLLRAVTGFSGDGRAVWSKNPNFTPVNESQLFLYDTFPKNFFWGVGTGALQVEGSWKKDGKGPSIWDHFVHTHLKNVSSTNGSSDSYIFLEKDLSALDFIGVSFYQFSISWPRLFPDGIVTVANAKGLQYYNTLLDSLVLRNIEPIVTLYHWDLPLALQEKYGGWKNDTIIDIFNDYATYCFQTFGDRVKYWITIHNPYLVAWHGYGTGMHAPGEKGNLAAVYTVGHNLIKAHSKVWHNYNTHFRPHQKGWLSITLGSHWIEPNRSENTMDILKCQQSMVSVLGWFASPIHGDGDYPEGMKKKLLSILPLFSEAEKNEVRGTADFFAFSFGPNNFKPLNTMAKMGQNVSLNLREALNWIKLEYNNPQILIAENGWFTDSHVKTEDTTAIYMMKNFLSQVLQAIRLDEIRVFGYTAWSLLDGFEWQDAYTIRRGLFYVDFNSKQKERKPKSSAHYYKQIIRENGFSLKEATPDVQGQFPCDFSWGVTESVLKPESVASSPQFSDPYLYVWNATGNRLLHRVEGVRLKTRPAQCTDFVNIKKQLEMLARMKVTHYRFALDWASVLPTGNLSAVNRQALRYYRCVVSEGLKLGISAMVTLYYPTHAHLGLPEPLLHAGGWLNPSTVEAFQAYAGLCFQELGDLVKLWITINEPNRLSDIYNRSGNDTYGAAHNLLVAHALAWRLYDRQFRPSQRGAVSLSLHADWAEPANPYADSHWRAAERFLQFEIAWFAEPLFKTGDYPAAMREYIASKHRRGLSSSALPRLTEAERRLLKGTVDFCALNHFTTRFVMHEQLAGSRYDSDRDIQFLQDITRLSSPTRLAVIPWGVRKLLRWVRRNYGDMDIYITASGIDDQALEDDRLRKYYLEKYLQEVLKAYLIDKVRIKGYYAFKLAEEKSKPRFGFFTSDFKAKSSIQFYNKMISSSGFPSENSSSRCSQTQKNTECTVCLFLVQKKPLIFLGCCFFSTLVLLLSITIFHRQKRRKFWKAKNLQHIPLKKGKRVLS
human FGFR4/βKlotho receptor, sequence (P22455 22-802, chain 1 of 2): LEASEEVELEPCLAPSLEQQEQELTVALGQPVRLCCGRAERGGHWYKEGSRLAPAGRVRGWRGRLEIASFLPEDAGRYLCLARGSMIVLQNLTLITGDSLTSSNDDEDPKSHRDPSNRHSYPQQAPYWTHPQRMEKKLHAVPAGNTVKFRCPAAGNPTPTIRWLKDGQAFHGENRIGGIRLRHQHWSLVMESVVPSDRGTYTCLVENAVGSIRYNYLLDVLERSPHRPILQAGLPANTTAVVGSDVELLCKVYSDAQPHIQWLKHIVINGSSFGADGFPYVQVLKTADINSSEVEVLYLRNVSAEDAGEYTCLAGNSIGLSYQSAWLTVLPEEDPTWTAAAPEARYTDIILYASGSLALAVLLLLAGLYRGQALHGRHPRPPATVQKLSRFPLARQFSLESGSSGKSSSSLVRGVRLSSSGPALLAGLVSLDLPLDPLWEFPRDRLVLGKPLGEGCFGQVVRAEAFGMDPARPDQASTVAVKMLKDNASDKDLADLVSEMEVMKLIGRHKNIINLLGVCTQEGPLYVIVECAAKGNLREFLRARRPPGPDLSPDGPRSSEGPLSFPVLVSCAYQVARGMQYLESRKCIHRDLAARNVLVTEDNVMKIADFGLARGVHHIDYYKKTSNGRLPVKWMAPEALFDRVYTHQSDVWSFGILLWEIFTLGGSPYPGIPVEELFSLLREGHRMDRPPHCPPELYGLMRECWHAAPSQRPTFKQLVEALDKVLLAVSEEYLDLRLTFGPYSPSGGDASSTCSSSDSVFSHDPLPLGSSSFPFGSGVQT
human FGFR4/βKlotho receptor, sequence (chain, as listed by the source, chain 2 of 2): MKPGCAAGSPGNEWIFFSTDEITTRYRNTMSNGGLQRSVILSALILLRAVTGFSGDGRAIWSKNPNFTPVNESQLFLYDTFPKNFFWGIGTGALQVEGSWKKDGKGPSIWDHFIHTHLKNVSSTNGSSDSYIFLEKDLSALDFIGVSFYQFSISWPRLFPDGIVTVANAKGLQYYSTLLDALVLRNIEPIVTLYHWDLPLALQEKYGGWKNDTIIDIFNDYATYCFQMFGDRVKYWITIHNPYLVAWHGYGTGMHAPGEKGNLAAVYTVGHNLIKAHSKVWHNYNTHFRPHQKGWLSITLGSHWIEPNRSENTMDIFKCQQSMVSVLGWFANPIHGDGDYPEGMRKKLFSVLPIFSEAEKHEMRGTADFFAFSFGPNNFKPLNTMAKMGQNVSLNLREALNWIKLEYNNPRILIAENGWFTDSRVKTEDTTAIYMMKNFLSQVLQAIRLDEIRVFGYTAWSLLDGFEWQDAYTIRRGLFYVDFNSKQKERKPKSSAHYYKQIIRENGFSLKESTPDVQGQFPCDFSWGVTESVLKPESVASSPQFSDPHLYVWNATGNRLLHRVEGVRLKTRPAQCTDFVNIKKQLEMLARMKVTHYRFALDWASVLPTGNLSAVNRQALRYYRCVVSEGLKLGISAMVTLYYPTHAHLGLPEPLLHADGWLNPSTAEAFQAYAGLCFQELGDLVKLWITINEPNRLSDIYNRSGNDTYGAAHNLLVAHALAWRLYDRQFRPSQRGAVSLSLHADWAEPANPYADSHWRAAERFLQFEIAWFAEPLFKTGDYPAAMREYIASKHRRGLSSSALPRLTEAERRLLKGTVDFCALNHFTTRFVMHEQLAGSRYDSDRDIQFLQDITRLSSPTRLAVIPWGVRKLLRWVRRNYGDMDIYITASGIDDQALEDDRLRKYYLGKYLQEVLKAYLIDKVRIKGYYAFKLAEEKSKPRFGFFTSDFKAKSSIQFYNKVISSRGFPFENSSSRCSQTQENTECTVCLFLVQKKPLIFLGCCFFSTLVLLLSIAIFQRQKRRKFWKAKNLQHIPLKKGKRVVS

Row | Binder | EC50 for antibody-induced cell activation, as determined by the reporter-based assay [1] | other results
1 | B1 | 2.86 nM | EC50 [2]: > 100 nM; EC50, luciferase reporter-based assay (receptor activation) [3]: 4.89 nM
2 | B2 | – | EC50, luciferase reporter-based assay (receptor activation) [4]: 0.17 nM; EC50, luciferase reporter-based assay (receptor activation) [5]: > 100 nM
3 | B3 | 1.57 nM | –
4 | B4 | 0.88 nM | –
5 | B5 | 0.54 nM | –
6 | B6 | 0.55 nM | Kd [6]: 7.08 nM; koff [6]: 0.000173 s⁻¹; kon [6]: 24500 M⁻¹ s⁻¹
7 | B7 | 0.15 nM | –
8 | B8 | 0.71 nM | –
9 | B9 | 1.08 nM | –
10 | B10 | 0.49 nM | –
